# Laboratory results as given in the nanobody polyreactivity screen of Harvey et al. (2022).
# Test: yeast display, Sf9 membrane polyspecificity reagent, FACS + sequencing; frameworks hold sequencing errors
# How it was run: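 A nanobody's polyreactivity label depends on the gate it was sorted from. Yeast display cells were stained with 10% biotinylated, detergent-solubilized Sf9 membrane reagent for 1 hour at 4 °C, enriched on streptavidin microbeads and sorted by FACS. The low and high (top ~1%) gates were set on anti-HA fluorescence for expression and streptavidin fluorescence for reagent binding.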
row,Sequence,polyreactivity (PSR sort gate)
1,QVQLVESGGGLVQAGGSLRLSCAASGFTFFKYAMGWYRQAPGKERELVAAITRNGGRTYYADSVKGRFTISRDNAKNTVYLQMNSLKPEDTAVYYCAAVQYRYGGMDYWGQGTQVTVSS,high polyreactivity
2,QVQLVESGGGLVQAGGSLRLSCAASGFTFFQYAKGWYRQAPGKERELVAAISARGGRTYYADSVKGRFTISRDNAKNTVYLQMNSLKPEDTAVYYCAKRTRTIQGHYDYWGQGTQVTVSS,high polyreactivity
3,QVQLVESGGGLVQAGGSLRLSCAASGFTFFRNAMGWYRQAPGKEMELVAAISGSGGSTYYADSVKGRFTISRDNAKNTVYLQINSLKPEDTAVYYCATYSYPAKVPEAYNYWGQGSQVTVSS,low polyreactivity
4,QVQLVESGGGLVQAGGSLRLSCAASGFTFFRYAMGWYRQAPGKERELVATITRGGSTNYADSVKGRCTISRDNAKNTDYLQMNSLQPEDTAVYYCNKDKKTPTFDYWGQGTQVTVSS,low polyreactivity
5,QVQLVESGGGLVQAGGSLRLSCAASGFTFFSYTMGWYRQAPGKERELVAAISKRGSRTYYADSVKGRFTISRDNAKNTVYLQRNSLKPEDTAVYYCAADCGREVVLRREDYWGQGTQVTVSS,high polyreactivity
6,QVQLVESGGGLVQAGGSLRLSCAASGFTFFVNAMGWYRQAPGKERELVAAISIRSGGRTYYADSVKGRFTISRDNAKNTVYLQMNSLKPEDTAVYYCAAESSRPEHTYHYYRFLFDYWGQGTQVTVSS,low polyreactivity
7,QVQLVESGGGLVQAGGSLRLSCAASGFTFFYNAMGWYRQAPGKEREFVAAISGRGGTTYYADSVKGRFTISRDNAKNTVYLQMNSLKPEDTAVYYCAARSVSTLRYTSRKLRYDYWGQGTQVTVSS,high polyreactivity
8,QVQLVESGGGLVQAGGSLRLSCAASGFTFFYYDMGWYRQAPGKERELVADITTGGSTYYADSVKGRFTISRDNAKNTVYLQMNSLKPEDTAVYYCAALLYVSNSYRWWPWDGEDYWGQGTQVTVSS,high polyreactivity
9,QVQLVESGGGLVQAGGSLRLSCAASGFTFFYYVMGWYRQAPGKERELVAAISQHGGSTYYADSVKGRFTISRDNAKNTVYLQMNSLKPEDTAVYYCAASPVVNRRGTYGYWGQGTQVTVSS,high polyreactivity
10,QVQLVESGGGLVQAGGSLRLSCAASGFTFGENAMGWYRQAPGKEWELVATISDSGDSTYYADSVKGRFTISRDNAKNTVYLLMNSLKPEDTAVYDCNAEQVCYTYGRYPEWYLYGYWGQGTQVTVSS,low polyreactivity
11,QVQLVESGGGLVQAGGSLRLSCAASGFTFGFYAMGWYRQGPGKERELVAASTRSGGTTYYADSVKGRFTISRDNAKNTVYLQMNSLKPEDTAVYYCAADYTKYYRRYYYWGQGTQVTVSS,high polyreactivity
12,QVQLVESGGGLVQAGGSLRLSCAASGFTFGGNDMGWYSQAPGKERELVAAIRSSGDTTYYADSVKGRFTISRDNAKNTVYLQMNSLKPEDTAVSYCAAYSHHQFSRSEYYYWGKGTQVTVSS,low polyreactivity
13,QVQLVESGGGLVQAGGSLRLSCAASGFTFGGNVMGWYRQAPGKERELVAAIRGTGGNTYYADSVKGRFTISRDNAKNTVYLQMNSLKPEDTAVYYCAAAQRELPTVRRNYWGQGTQVTVSS,high polyreactivity
14,QVQLVESGGGLVQAGGSLRLSCAASGFTFGGYAMGWYRQAPGKERELVAAIRASGGSTYYADSVKGRFTISRDNAKNTVYLQMNSLKPEDTAVYYCNADIWYKTYDYWGQGTQVTVSS,low polyreactivity
15,QVQLVESGGGLVQAGGSLRLSCAASGFTFGGYAMGWYRQAPGKERELVAAIRSSGDTTYYADSVKGRFTISRDNAKNTVYLQMNSLKPEDTAVYYCAAYSHHQFSRSEYYYWGQGTQVTVSS,low polyreactivity
16,QVQLVESGGGLVQAGGSLRLSCAASGFTFGGYAMGWYRQAPGKERELVAAISKSGGRTYYADSVKGRFTISRDNAKNTVYLQMNSLKPEDTAVYYCAASTIWHYDSWGQGTQVTVSS,high polyreactivity
17,QVQLVESGGGLVQAGGSLRLSCAASGFTFGGYVMGWYRQAPGKERELVAAISSSGGITHYADSVKGRFTISRDNAKNTVYLQMNSLKPEDTAVYYCNALYRQRYYWGQGTQVTVSS,high polyreactivity
18,QVQLVESGGGLVQAGGSLRLSCAASGFTFGHYALGWYRQATGKERELVAAITRSGGNTYYADSVKGRFTISRYNAKNTVYLQMNSLKPEDTAVYYCAARLGWVYYSRSRYGYWGQGTQVTVSS,high polyreactivity
19,QVQLVESGGGLVQAGGSLRLSCAASGFTFGHYAMGWYRPAPGKERELVAAISSGDRTYYADSVKGRFTISRDNAKNTVYLQMNSLKPEDTAVYYCNAVYYSWAQSARFDYWGQGTQVTVSS,low polyreactivity
20,QVQLVESGGGLVQAGGSLRLSCAASGFTFGHYAMGWYRQAPGKERELVAAISIDGGRTYYADSVKGRFTISRDNAKNTVYLQMNSLKPEDTAVYYCAAAVAGRKMGYWGQGTQVTVSS,high polyreactivity
21,QVQLVESGGGLVQAGGSLRLSCAASGFTFGKNAMGWYRQAPGKERELVAAIDTGDRTNYADSVKGRFTISRDNAKNTVYLQMNSLKPEDTAVYYCATDVVFSSYDYWGQGTQVTVSS,low polyreactivity
22,QVQLVESGGGLVQAGGSLRLSCAASGFTFGLYAMGWYRQAPGKERELVAAISSDGSTYYTDSVKGRFTISRDNAKNTVYLQMNSLKPEDTSVYYCNRDYPQSLPYYTNTILYGYWGQGTQVTVSS,low polyreactivity

row,Sequence,polyreactivity (PSR sort gate)
1,QVQLVESGGGLVQAGGSLRLSCAASGFTFGLYTMGWYRQAPGKERELVAAITSSGARTYYADSVKGRFTISRDNAKNTVNLQMNSLKPEDTAVYYCNAGKRGSTYYYWGQGTQVTVSS,high polyreactivity
2,QVQLVESGGGLVQAGGSLRLSCAASGFTFGNSALGWYRLAAGKERELVAAISRSGGRTYYADSVKGSFTISRDNAKNTVYLQMNSLKPEVTAVYYCARLLLSPQYGYWGQGTQVTVSS,high polyreactivity
3,QVQLVESGGGLVQAGGSLRLSCAASGFTFGNYAMYWVRQAPGKERELVAAINYSGGSTYYADSVKGRFTISRDNAKNTVYLQMNSLKPEDTAVYYCAADTYPASYDYWGQGTQVTVSS,high polyreactivity
4,QVQLVESGGGLVQAGGSLRLSCAASGFTFGPYAMGWYRQAPGKERELVAAIRGSGSSTYYADSVKGRFTISRDNAKNTVYLQMNSLKPEDTAVYYCAAKRRYGTDGYWGQGTQVTVSS,high polyreactivity
5,QVQLVESGGGLVQAGGSLRLSCAASGFTFGPYDMGWYRQAPGKERELVAAITDSSGSTHYADSVKGRFTISRDNAKNTVYLQMNSLKPEDTAVYYCAAVVYYTFDYWGQGTQVTVSS,low polyreactivity
6,QVQLVESGGGLVQAGGSLRLSCAASGFTFGPYDMGWYRQAPGKERELVAVIIGGDSTNYADSVKGRFTISRDNAKYTVYLQMNSLKPEDTAVYYCAADYIDRVGWMDYWGQGTQVTVSS,low polyreactivity
7,QVQLVESGGGLVQAGGSLRLSCAASGFTFGRNAMGWYRQAPGKERELVARITTGGSTNYADSVKGRFTISRDNAKNTVYLQMNSLKPEDTAVYYCAATYRSLALFWTYGYWGQGTQVTVSS,low polyreactivity
8,QVQLVESGGGLVQAGGSLRLSCAASGFTFGRNTMGWYRQAPGKERELVAAITRRGGTTHYADSVKGRFTISRDNAKNTVYLQMNSLKPEDTAVYYCAADPFNSYYGRYDYWGQGTQVTVSS,high polyreactivity
9,QVQLVESGGGLVQAGGSLRLSCAASGFTFGRYAMGWYRQAPGKERELVAAISRGGSTYYADSVKGRFTISRDNAKNTVYLQMNSLKPEDTAVYYCNKGDSKEYDVYYWGQGTQVTVSS,low polyreactivity
10,QVQLVESGGGLVQAGGSLRLSCAASGFTFGRYAMGWYRQAPGKERELVAAISWTGGSTYYADSVKGRFTISRDNAKNTVYLQMNSLKPEDTAVYYCAAVGRSKRDGYWGQGTQVTVSS,high polyreactivity
11,QVQLVESGGGLVQAGGSLRLSCAASGFTFGRYGMGWYRQAPGKDREFVAAITGRTGTTYYADSVKGRFTISRDNAKNTVYLQMNSLKPEDTAVYYCAARGQYRSSRYPYYHWGQGTQVTVSS,high polyreactivity
12,QVQLVESGGGLVQAGGSLRLSCAASGFTFGRYVMGWYRQAPGKGRELVAAITSSGSRTYYADSVKGRFTISRDNAKNTVYLQMNSLKPEHTAVYYCAARVYWTPVYYWGQGTQVTVSS,high polyreactivity
13,QVQLVESGGGLVQAGGSLRLSCAASGFTFGSNAMGWYRQAPGKEREFVAAITYSGGGTYADSVKGRFTISRDNAKNTVDLQMNSLKPEDTAVYYCATDAYRWHYWNFGFGYWGQGTQVTVSS,high polyreactivity
14,QVQLVESGGGLVQAGGSLRLSCAASGFTFGSNAMGWYRQAPGKERELVATISRRGGRTYYADSVKGRFTISRDNAKNTVYLQMNSLKPEDTAVYYCAAYLRPGGNYYWGQGTQVTVSS,high polyreactivity
15,QVQLVESGGGLVQAGGSLRLSCAASGFTFGSNTMGWYRQAPGKERELVAAITTSGDSTYYADSVKGRFTISRDTAKNTVYLQMNSLKPEDTAVYYCAAERRYGRYYRLVRLLGQGTQVTVSS,high polyreactivity
16,QVQLVESGGGLVQAGGSLRLSCAASGFTFGSYAMGWYRQAPGKDRELVAAISSNGGNTYYADSVKGRFTISRDNAKNTVYLQMNSLKPEDTAVYYCARDRQSRSLLEYDFWGQGTQVTVSS,high polyreactivity
17,QVQLVESGGGLVQAGGSLRLSCAASGFTFGSYAMGWYRQAPGKEREFVAAIRRSGSSTYYADSVKGRFTISRDNAKNTVYLQMNSLKPEDTAVYYCAADVYRRLRRYRYYYWGQGTQVTVSS,low polyreactivity
18,QVQLVESGGGLVQAGGSLRLSCAASGFTFGSYAMGWYRQAPGKERELVAAITCSGGSTYYADSVKGRFTISRDNAKNTVYLQMNSLKPEDTAVYYCNADVAGGYGWKSYHGYDYWGQGTQVTVSS,high polyreactivity
19,QVQLVESGGGLVQAGGSLRLSCAASGFTFGSYAMGWYRQAPGKERELVAAITYSGSRTYYADSVKGRFTISRDNAKNTVYLQMNSLKPEDTAVYYCAAVTHYGFDYWGQGTQVTVSS,high polyreactivity
20,QVQLVESGGGLVQAGGSLRLSCAASGFTFGSYARGWYRQAPGKERELVAAISWGGGSTYYADSVKGRFTISRDNAKNTVYLQMNSLKPEDTAVYYCNADAISSFGYWGQGTQVTVSS,high polyreactivity
21,QVQLVESGGGLVQAGGSLRLSCAASGFTFGSYVMGWYRQAPGKERELVADISIRGGSTYYADSVKGRFTISRDNAKNTVYLQMNSLKPEDTAVYYCNADPAFYYWEGIVGGADYDYWGQGTQVTVSS,low polyreactivity
